Target: plectin-1 (human recombinant protein) (Homo sapiens, UniProt Q15149)
Assay: Affinity of anti-plectin-1 antibodies (FIGS. 1A-1B)
Type: binding
Details: human recombinant protein and pancreatic cell lines
Description: FIGS. 1A-1B show representative data for affinity and specificity of an anti-plec1 antibody on human recombinant protein (FIG. 1A) and human (YapC and L3.6pl) and mouse (Han14.3) pancreatic cell lines (FIG. 1B).

Chain of plectin-1 (human recombinant protein) (Q15149 whole entry): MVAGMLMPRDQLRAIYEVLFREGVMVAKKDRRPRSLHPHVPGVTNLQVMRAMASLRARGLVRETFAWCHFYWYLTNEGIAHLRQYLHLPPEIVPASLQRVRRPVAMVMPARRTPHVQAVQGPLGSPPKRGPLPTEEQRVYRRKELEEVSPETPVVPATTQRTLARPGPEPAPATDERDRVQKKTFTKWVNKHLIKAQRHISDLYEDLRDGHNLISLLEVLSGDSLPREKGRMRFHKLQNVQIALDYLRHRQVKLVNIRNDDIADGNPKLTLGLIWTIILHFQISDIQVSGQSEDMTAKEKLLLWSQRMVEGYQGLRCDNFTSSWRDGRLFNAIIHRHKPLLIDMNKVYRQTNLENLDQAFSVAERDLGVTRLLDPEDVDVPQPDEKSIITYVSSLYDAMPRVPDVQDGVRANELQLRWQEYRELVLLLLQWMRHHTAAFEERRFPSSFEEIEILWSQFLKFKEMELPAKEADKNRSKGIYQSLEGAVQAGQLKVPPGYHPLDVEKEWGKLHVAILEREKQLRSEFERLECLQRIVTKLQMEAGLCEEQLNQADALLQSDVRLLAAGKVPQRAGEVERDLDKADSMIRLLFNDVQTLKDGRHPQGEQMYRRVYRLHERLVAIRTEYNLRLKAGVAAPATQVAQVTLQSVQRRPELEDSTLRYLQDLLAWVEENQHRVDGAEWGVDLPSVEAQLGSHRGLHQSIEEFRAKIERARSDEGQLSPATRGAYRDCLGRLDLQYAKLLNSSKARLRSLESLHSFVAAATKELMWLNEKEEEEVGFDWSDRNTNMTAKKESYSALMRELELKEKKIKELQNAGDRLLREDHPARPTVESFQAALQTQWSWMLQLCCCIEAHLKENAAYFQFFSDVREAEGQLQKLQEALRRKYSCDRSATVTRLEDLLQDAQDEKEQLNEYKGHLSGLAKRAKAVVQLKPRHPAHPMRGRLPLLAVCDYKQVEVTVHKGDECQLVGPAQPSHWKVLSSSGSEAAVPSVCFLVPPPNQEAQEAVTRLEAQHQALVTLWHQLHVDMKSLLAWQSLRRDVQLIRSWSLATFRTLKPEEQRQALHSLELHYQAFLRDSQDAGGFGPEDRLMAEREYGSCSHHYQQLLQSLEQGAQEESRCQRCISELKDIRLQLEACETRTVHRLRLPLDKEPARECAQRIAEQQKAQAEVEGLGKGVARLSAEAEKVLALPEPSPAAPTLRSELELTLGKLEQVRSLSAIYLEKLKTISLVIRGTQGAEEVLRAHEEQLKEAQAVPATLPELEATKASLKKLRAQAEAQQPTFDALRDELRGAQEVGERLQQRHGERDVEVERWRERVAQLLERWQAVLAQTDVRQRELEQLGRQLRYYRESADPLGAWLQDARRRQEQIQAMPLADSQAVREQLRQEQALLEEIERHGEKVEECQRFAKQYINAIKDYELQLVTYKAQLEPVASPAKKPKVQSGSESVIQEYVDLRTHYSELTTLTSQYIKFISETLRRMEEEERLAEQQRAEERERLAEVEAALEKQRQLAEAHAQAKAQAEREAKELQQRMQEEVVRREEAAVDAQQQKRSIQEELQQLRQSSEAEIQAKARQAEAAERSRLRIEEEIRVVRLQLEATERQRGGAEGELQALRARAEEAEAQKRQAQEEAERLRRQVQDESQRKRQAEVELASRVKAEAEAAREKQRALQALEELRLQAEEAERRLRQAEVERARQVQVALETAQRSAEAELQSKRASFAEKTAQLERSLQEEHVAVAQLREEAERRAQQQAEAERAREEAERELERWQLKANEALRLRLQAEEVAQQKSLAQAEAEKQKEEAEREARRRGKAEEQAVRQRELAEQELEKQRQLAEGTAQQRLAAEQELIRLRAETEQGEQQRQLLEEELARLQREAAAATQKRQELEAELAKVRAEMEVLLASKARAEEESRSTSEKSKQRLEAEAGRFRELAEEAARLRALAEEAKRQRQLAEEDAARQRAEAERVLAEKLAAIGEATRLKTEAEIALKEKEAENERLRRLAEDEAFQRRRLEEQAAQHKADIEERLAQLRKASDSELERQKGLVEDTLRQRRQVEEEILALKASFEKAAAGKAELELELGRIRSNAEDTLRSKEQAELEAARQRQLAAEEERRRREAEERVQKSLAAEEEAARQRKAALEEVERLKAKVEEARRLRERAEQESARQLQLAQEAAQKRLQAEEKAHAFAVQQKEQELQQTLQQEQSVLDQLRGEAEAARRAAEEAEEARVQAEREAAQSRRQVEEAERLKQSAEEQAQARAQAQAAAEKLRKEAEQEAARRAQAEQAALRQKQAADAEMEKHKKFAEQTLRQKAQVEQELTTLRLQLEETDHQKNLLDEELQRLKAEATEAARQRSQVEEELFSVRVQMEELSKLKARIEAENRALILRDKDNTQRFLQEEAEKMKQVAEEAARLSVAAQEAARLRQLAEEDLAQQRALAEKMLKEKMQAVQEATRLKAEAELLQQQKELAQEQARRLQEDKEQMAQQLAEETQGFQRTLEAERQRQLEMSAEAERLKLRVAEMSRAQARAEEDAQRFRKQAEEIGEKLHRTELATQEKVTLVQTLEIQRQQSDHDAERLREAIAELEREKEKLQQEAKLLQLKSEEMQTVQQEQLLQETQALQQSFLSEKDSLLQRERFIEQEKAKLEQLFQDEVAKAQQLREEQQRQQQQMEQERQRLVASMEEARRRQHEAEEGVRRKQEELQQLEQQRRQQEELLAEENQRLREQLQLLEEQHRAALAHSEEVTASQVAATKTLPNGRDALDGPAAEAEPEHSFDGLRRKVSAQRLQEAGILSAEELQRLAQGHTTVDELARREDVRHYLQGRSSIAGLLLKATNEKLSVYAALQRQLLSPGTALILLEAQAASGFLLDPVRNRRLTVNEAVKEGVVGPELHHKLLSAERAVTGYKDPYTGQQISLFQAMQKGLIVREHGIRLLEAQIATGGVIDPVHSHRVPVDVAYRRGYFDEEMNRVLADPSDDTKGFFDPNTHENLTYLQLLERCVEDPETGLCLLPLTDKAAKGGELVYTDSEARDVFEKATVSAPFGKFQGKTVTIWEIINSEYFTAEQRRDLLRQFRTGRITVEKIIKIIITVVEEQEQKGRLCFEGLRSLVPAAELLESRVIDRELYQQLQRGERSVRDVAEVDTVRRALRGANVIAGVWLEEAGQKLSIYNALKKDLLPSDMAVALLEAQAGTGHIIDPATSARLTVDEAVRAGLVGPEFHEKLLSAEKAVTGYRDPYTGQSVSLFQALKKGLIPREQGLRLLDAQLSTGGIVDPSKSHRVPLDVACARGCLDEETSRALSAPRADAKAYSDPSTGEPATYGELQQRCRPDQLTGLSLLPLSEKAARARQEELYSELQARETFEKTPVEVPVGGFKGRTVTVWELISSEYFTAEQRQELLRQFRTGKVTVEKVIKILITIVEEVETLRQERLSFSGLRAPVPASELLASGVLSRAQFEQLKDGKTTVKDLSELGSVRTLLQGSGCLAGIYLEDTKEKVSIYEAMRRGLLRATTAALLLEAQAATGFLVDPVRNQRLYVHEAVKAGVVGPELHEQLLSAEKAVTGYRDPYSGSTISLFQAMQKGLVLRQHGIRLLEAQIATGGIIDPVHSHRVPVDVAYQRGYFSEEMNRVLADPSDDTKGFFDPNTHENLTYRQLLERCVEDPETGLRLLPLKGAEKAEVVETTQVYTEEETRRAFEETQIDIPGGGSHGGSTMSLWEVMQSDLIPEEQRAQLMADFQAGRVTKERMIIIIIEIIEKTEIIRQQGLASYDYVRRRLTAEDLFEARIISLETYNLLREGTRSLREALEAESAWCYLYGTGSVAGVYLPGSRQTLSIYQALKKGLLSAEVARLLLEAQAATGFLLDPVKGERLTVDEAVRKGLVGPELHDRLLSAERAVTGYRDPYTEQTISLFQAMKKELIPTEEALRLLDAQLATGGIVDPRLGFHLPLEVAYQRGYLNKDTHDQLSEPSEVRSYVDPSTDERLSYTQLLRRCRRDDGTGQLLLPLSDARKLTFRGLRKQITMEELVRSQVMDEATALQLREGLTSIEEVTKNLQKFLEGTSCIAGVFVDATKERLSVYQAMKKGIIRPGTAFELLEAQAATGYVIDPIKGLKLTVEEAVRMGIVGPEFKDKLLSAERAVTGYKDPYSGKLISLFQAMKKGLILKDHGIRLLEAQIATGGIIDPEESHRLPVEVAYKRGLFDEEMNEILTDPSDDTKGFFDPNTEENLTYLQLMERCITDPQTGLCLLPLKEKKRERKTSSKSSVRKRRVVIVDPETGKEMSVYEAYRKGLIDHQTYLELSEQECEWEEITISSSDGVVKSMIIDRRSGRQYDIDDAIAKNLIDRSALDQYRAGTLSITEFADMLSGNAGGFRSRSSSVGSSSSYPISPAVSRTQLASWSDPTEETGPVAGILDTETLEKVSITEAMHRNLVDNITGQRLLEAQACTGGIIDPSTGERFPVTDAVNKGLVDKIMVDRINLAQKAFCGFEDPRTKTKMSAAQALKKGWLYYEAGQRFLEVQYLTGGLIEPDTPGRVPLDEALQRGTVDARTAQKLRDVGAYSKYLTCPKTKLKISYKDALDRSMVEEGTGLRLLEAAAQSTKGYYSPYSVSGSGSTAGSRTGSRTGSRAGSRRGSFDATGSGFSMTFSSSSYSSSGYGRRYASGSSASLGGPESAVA

affinity among anti-plectin-1 antibodies tested: highest affinity
B1: Pab2: anti-plectin-1 antibody; heavy chain variable region SEQ ID NO: 23, light chain variable region SEQ ID NO: 45 (antibody, V domains shown)
VH: EVQLVESGGDLVKPGGSLKLSCAASGFTFSRYGMSWVRQTPDKRLEWVATISIGGTYTYYPDSMKGRFTISRDNAKNTLYLQMSSLKSEDTAMYYCARRGYGNYSYYGMDYWGQGTSVTVSS
VL: DIVMTQAAFSNPVTLGTSASISCRSSKSLLHSNGITYLYWYLQKPGQSPQLLIYQMSNLASGVPDRFSSSGSGTDFTLRISRVEAEDVGVYYCAQNLELPLTFGAGTKLELK

Reference: patent publication US12053530B2, “Plectin-1 binding antibodies and uses thereof” (ZIELBIO, INC., priority 2017, dated 2024)
